Assay results published in article PMC8358021, “Structural basis of the complementary activity of two ketosynthases in aryl polyene biosynthesis” (Scientific Reports, 2021).

What was measured:
[1] = molecular target: T1, AbApeO-AbApeC heterodimer (ketosynthase-chain length factor complex of the aryl polyene biosynthesis gene … (Acinetobacter baumannii)); experiment: ITC; 2.0 mM holo ACP1 or holo ACP2 injected (19 injections of 3 µl) into 0.1 mM AbApeO-AbApeC or AbApeR; 25 °C; 40 mM potassium phosphate pH 7.0; 2 mM 2-mercaptoethanol; settings: both partners purified
T1 construct: ApeO, ketosynthase of the APE biosynthesis gene cluster, Acinetobacter baumannii (pathogenic strain, global clone 2); ApeC, chain length factor of the APE biosynthesis gene cluster, Acinetobacter baumannii (pathogenic strain, global clone 2); The His6 tag on AbApeO is said to be not cleavable; The complex was formed by co-expression and used as one molecule in ITC; also called ApeO-ApeC; …

[2] = molecular target: T2, AbApeR (FabB-like homodimeric ketosynthase of the A. baumannii APE gene cluster) (Acinetobacter baumannii); experiment: as above; settings: both partners purified
T2 construct: ApeR, ketoacyl-ACP synthase I (FabB)-like ketosynthase of the APE biosynthesis gene cluster, Acinetobacter baumannii (pathogenic strain, global clone 2); not shown: His6, N-terminal, cleaved

B1: holo ACP2 (ApeF), acyl carrier protein 2 of the A. baumannii APE gene cluster (natural protein)
chain: MSNLADELKQMIIDVLALEDITIADIDTEAPLFGEGLGLDSIDALELGLALKKRYNIHLNAESDETKQHFKSIQSLVALVEAQQKS
modifications: 4'-phosphopantetheine (holo form)
stoichiometry N [1]: 1.21
Kd [2]: 41 µM
stoichiometry N [2]: 0.71
